Where a chain is given by its changes, count along the chain named. Blank lines part the entries; values can stand above or below the binder they belong to.
Tests used:
[1] = biological target: T1, extracellular domain of human ILT3 (huILT3-ECD) (human, UniProt Q8NHJ6 22-259); experiment: SPR (Biacore), antibody captured via anti-Fc on CM5 chip, soluble ILT3-ECD injected, 37 C
T1 construct: also called human ILT3-ECD
Method: (§1) The binding affinities of anti-ILT3 antibodies to human ILT3 and cyno ILT3 were measured using a Biacore system (GE Healthcare LifeSciences). Briefly, anti-Fc antibody (Sigma-Aldrich) was immobilized on all four flow cells of a CM5 chip using amine coupling reagents (GE Healthcare LifeSciences). Antibodies were captured on flow cells 2, 3, and 4 using flow cell 1 as a reference. Concentrations ranging from 3.3-10 nM of human or cyno ILT3-ECD were injected at a flow rate of 50 μL/min at 37° C. Kinetic data were collected over time and fit using the simultaneous global fit equation to yield affinity constants (KD values) for each antibody.

[2] = biological target: T2, extracellular domain of cyno ILT3 (cynoILT3-ECD) (cynomolgus monkey); experiment: as above
T2 chain: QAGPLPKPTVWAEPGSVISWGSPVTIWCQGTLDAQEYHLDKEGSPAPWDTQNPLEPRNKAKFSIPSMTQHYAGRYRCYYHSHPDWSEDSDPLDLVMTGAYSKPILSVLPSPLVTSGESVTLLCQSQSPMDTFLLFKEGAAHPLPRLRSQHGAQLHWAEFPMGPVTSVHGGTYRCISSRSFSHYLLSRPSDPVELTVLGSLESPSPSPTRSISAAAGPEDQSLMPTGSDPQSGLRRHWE
Method: as §1

[3] = biological target: T1, extracellular domain of human ILT3 …; experiment: SPR (Biacore), antibody captured via anti-Fc on CM5 chip, soluble ILT3-ECD injected
Method: as §1
(§2) The binding affinities of various Hz48A6 and Hz45G10 antibodies to human ILT3 and cyno ILT3 were also determined using a Biacore system as described herein. Humanized antibodies comprising various combinations of a heavy chain variable region and a light chain variable region and a human Fc domain were tested, and compared with the binding affinity of the parental chimeric antibody (48A6 chimera comprising mouse 48A6 heavy and light variable regions and a human Fc domain, or 45G10 chimera comprising mouse 45G10 heavy and light variable regions and a human Fc domain).

[4] = biological target: T2, extracellular domain of cyno ILT3 …; experiment: as above
Method: as §1, §2

[5] = biological target: T1, extracellular domain of human ILT3 …; experiment: SPR (Biacore), antibody captured via anti-Fc on CM5 chip, soluble ILT3-ECD injected, 37 C; remark: listed apart in the source
Method: as §1
(§3) The binding affinity of Hz5A7.v5 to human ILT3 and cyno ILT3 was determined using a Biacore system as described herein and compared with the binding affinity of the parental chimeric 5A7 (ch5A7) antibody and humanized 5A7 without any CDR modifications (Hz5A7.v1) (see Table 12).

[6] = biological target: T2, extracellular domain of cyno ILT3 …; experiment: as above
Method: as §1, §3

B3: Hz48A6 C1/C2 (antibody, V domains shown)
VH: EVQLVESGGGLVQPGGSLRLSCAASGFTFSSYGMSWVRQAPGKGLEWVATISSGGTYTFYPDSVKGRFTISRDNSKNTLYLQMNSLRAEDTAVYYCARRGWLLHYYAMDYWGQGTLVTVSS
VL: DIQLTQSPSFLSASVGDRVTITCRPSESVDSFGNSFMHWFQQKPGKAPKLLIYLSSKLESGVPSRFSGSGSGTEFTLTISSLQPEDFATYYCQQHNEDPFTFGQGTKVEIK
Kd [3]: 0.26 nM | koff [3]: 0.000705 s⁻¹ | kon [3]: 2.72e+06 M⁻¹ s⁻¹ | Kd [4]: 770 nM | koff [4]: 0.088 s⁻¹ | kon [4]: 114000 M⁻¹ s⁻¹

B4: Hz5A7.v1 (humanized 5A7 without any CDR modifications) (antibody, V domains shown)
VH: EVQLVESGGGLVQPGGSLRLSCAASGFTFSSYGMSWVRQAPGKGLEWVATISGGGSYTNYPDSVKGRFTISRDNAKNSLYLQMNSLRAEDTAVYYCARREWRMTLYAMDYWGQGTTVTVSS
VL: B3 VL with P25A, F32Y, F40Y, S55T, K57N, H95N, V108L
Kd [5]: 0.48 nM | koff [5]: 0.0012 s⁻¹ | kon [5]: 2.5e+06 M⁻¹ s⁻¹ | Kd [6]: 0.65 nM | koff [6]: 0.0077 s⁻¹ | kon [6]: 1.2e+07 M⁻¹ s⁻¹

B9: 45G10 chimera (antibody, V domains shown)
VH: EVQLVESGGGLVKPGGSLKLSCAASGFTFSDYGMHWVRQAPEKGLEWVAYIFSGSSTIYYADTVKGRFTISRDNAKNTLFLQMTSLRSEDTAMYYCARADGRGAMDYWGQGTSVTVSS
VL: DVQMTQTTSSLSASLGDRVTISCRASQDISKFLNWYQQKPDGTVTLLIYYTSRLHSGVPSRFSGSGSGTDYSLTISNLDQEDIATYFCQQGNTLPWTFGGGTKLEIK
notes: also called parental chimeric 45G10
Kd [3]: 0.14 nM | koff [3]: 0.00034 s⁻¹ | kon [3]: 2.3e+06 M⁻¹ s⁻¹ | Kd [4]: 37 nM | koff [4]: 0.015 s⁻¹ | kon [4]: 410000 M⁻¹ s⁻¹

B10: Hz45G10 A2/A4 (antibody, V domains shown)
VH: B9 VH with K13Q, K19R, E42G, T78S, F80Y, T84N, S88A, M93V, S113T
VL: DIQMTQSPSSLSASVGDRVTITCRASQDISKFLNWYQQKPGKAPKLLIYYTSRLHSGVPSRFSGSGSGTDFTFTISSLQPEDIATYFCQQGNTLPWTFGGGTKLEIK
Kd [3]: 0.2 nM | koff [3]: 0.00028 s⁻¹ | kon [3]: 1.4e+06 M⁻¹ s⁻¹ | Kd [4]: 113 nM | koff [4]: 0.02 s⁻¹ | kon [4]: 190000 M⁻¹ s⁻¹

B13: 48A6 chimera (antibody, V domains shown)
VH: EVQLVESGGDLMKPGGSLKLSCAASGFTFSSYGMSWVRQTPDKRLEWVATISSGGTYTFYPDSVKGRFTISRDNAKNTLYLQMSSLKSEDTAMYYCARRGWLLHYYAMDYWGQGTSVTVSS
VL: NIVLTQSPASLAVSLGQRATISCRPSESVDSFGNSFMHWFQQKPGQPPKLLIYLSSKLESGVPARFSGSGSRTDFTLTIDPVEADDAATYYCQQHNEDPFTFGSGTKLEIK
notes: also called parental chimeric 48A6
Kd [3]: 0.066 nM | koff [3]: 0.000868 s⁻¹ | kon [3]: 1.31e+07 M⁻¹ s⁻¹ | Kd [4]: 54 nM | koff [4]: 0.11 s⁻¹ | kon [4]: 1.99e+06 M⁻¹ s⁻¹

Next, values leading:

Kd [1]: 8.5 nM | koff [1]: 0.00094 s⁻¹ | kon [1]: 110000 M⁻¹ s⁻¹ | Kd [2]: 1.9 nM | koff [2]: 0.00028 s⁻¹ | kon [2]: 150000 M⁻¹ s⁻¹
B1: anti-ILT3 antibody 12A12 (antibody, V domains shown)
VH: EVQLQQSGPELVKPGASVKISCKASGYTFTDYNMDWVKQSHGKSLEWIGYIYPNNGGTGYNQKFNSKATLTVDKSSSTAYMELHSLTSEDSAVYYCASSPYYDYVGSYAMDYWGQGTSVTVSS
VL: QIVLTQSPAIMSASLGERVTMTCTASSSVSSSYLHWYQQKPGSSPKLWIYSTSNLASGVPARFSGSGSGTSYSLTISSMEAEDAATYYCHQYHRSPRTFGGGTKLEIK
notes: Mouse monoclonal antibody from hybridoma

Kd [1]: 2 nM | koff [1]: 0.00065 s⁻¹ | kon [1]: 330000 M⁻¹ s⁻¹ | Kd [2]: 6.3 nM | koff [2]: 0.021 s⁻¹ | kon [2]: 3.4e+06 M⁻¹ s⁻¹
B2: anti-ILT3 antibody 3A3 (antibody, V domains shown)
VH: QVQLKESGPGLVAPSQSLSITCTVSGFSLTSYGVHWVRQPPGKGLEWLGVIWPGGTINYNSALMSRLSISKDNSKSQVFLKLNSLQTDDTAMYYCASDKYDGGWFAYWGQGTLVTVSA
VL: DIVMTQSQKFMSTSVGDRVSITCKASQNVRTAVAWYQQKPGQSPEALIYLASNRHTGVPDRFTGSGSGTDFSLSISNVQSEDLADYFCLQHLNYPLTFGSGTKLEIK
notes: as for B1

Kd [3]: 0.24 nM | koff [3]: 0.000752 s⁻¹ | kon [3]: 3.06e+06 M⁻¹ s⁻¹ | Kd [4]: 377 nM | koff [4]: 0.082 s⁻¹ | kon [4]: 217000 M⁻¹ s⁻¹
B5: Hz48A6 C2/C2 (antibody, V domains shown)
VH: B3 VH with V12M
VL: B3 VL

Kd [3]: 0.16 nM | koff [3]: 0.000541 s⁻¹ | kon [3]: 3.45e+06 M⁻¹ s⁻¹ | Kd [4]: 177 nM | koff [4]: 0.058 s⁻¹ | kon [4]: 327000 M⁻¹ s⁻¹
B6: Hz48A6 C0/C2 (antibody, V domains shown)
VH: B3 VH with A49G
VL: B3 VL

Kd [3]: 0.25 nM | koff [3]: 0.000764 s⁻¹ | kon [3]: 3.05e+06 M⁻¹ s⁻¹ | Kd [4]: 531 nM | koff [4]: 0.092 s⁻¹ | kon [4]: 174000 M⁻¹ s⁻¹
B7: Hz48A6 B1/C2 (antibody, V domains shown)
VH: B3 VH with V12M, S75A, T78S, L116S
VL: B3 VL

Kd [3]: 0.28 nM | koff [3]: 0.000784 s⁻¹ | kon [3]: 2.8e+06 M⁻¹ s⁻¹ | Kd [4]: 455 nM | koff [4]: 0.097 s⁻¹ | kon [4]: 213000 M⁻¹ s⁻¹
B8: Hz48A6 B0/C2 (antibody, V domains shown)
VH: B3 VH with S75A, T78S, L116S
VL: B3 VL

Kd [1]: 0.13 nM | koff [1]: 5.1e-05 s⁻¹ | kon [1]: 390000 M⁻¹ s⁻¹ | Kd [2]: 5 nM | koff [2]: 0.00076 s⁻¹ | kon [2]: 150000 M⁻¹ s⁻¹
B11: anti-ILT3 antibody 45G10 (antibody, V domains shown)
VH: B9 VH
VL: B9 VL
notes: as for B1

Kd [3]: 0.2 nM | koff [3]: 0.00026 s⁻¹ | kon [3]: 1.3e+06 M⁻¹ s⁻¹ | Kd [4]: 76 nM | koff [4]: 0.09 s⁻¹ | kon [4]: 1.2e+06 M⁻¹ s⁻¹
B12: Hz45G10 B1/A4 (antibody, V domains shown)
VH: B9 VH with K19R, E42G, A49S, T78S, F80Y, T84N, S88A, M93V, S113L
VL: B10 VL
